Tests used:
Assay in all cases: purified protein
Format in all cases: biochemical, Homo sapiens
purified protein [1] = substrate: NC(=O)c1ccc[n+]([C@@H]2O[C@H](COP(=O)(O)OP(=O)(O)OC[C@H]3O[C@@H](n4cnc5c(N)ncnc54)[C@H](OP(=O)(O)O)[C@@H]3O)[C@@H](O)[C@H]2O)c1; conditions: 60 mM L-T4C, pH 7.5, Tris-HCl, varied: cofactor
purified protein [2] = substrate: NC(=O)c1ccc[n+]([C@@H]2O[C@H](COP(=O)(O)OP(=O)(O)OC[C@H]3O[C@@H](n4cnc5c(N)ncnc54)[C@H](O)[C@@H]3O)[C@@H](O)[C@H]2O)c1; conditions: 60 mM L-T4C, pH 7.5, Tris-HCl, varied: cofactor
purified protein [3] = substrate: O=C(O)[C@@H]1CSCN1; conditions: 1 mM NADP+, pH 7.5, Tris-HCl, L-T4C 0-25 mM

B1: PYCR2 (Homo sapiens) (protein)
chain: MSVGFIGAGQLAYALARGFTAAGILSAHKIIASSPEMNLPTVSALRKMGVNLTRSNKETVKHSDVLFLAVKPHIIPFILDEIGADVQARHIVVSCAAGVTISSVEKKLMAFQPAPKVIRCMTNTPVVVQEGATVYATGTHALVEDGQLLEQLMSSVGFCTEVEEDLIDAVTGLSGSGPAYAFMALDALADGGVKMGLPRRLAIQLGAQALLGAAKMLLDSEQHPCQLKDNVCSPGGATIHALHFLESGGFRSLLINAVEASCIRTRELQSMADQEKISPAALKKTLLDRVKLESPTVSTLTPSSPGKLLTRSLALGGKKD
Km (purified protein [1]): 530 ± 120 µM | kcat (purified protein [1]): 0.46 ± 0.02 s⁻¹ | kcat/Km (purified protein [1]): 857 ± 224 M⁻¹ s⁻¹ | Km (purified protein [2]): 660 ± 110 µM | kcat (purified protein [2]): 0.36 ± 0.13 s⁻¹ | kcat/Km (purified protein [2]): 551 ± 223 M⁻¹ s⁻¹ | Km (purified protein [3]): 6800 ± 900 µM | kcat (purified protein [3]): 0.92 ± 0.04 s⁻¹ | kcat/Km (purified protein [3]): 136 ± 19 M⁻¹ s⁻¹
